Our source for the Kd, koff and kon values is patent US20230242607A1 (EUTILEX, published 2023).

Holding throughout (assay): SPR, Biacore T200; IL-2-Fc on CM5 chip, receptor injected; 1:1 model
On the technique in general: Surface plasmon resonance follows binding to a sensor surface in real time, without labels.

Assay [1] has as its target T1, IL2-RB (UniProt P14784 27-239, limits assumed).
T1 construct: Bought recombinant protein (Sino); also called CD122; IL-2Rβ
T1 sequence (looked up): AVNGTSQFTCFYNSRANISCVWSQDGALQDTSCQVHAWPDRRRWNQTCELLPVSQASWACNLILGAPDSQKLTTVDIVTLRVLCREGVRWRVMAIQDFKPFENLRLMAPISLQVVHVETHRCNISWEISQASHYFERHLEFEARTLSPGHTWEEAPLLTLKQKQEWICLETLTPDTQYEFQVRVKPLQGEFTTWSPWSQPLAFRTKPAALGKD
How it is done:
The affinity of IL-2 variants to IL-2 receptors, IL2-RA and IL2-RB, was analyzed using surface plasmon resonance (SPR). The IL-2 variants were diluted to a concentration of 2 ug/mL then immobilized on CM5 chip (GE Healthcare, Cat#BR-1005-30). The receptors IL-2RA or IL-2RB (Sino) were injected at concentrations 100, 50, 25, 12.5, 6.25, 3.125 nM with an association time of 150 seconds and dissociation time of 240 seconds. Biacore T200 (GE healthcare) was used to measure and analyze affinity of each IL-2 variant, where the results were analyzed with a 1:1 binding model by BIAevaluation software.

In assay [2] the target is T1, IL2-RB. The protocol: (§1) The affinity of additional IL-2 variants to IL-2 receptors, IL2-RA and IL2-RB, was analyzed using surface plasmon resonance (SPR). The IL-2 variants were diluted to a concentration of 2 ug/mL then immobilized on CM5 chip (GE Healthcare, Cat#BR-1005-30). Biacore T200 (GE healthcare) was used to measure and analyze affinity of each IL-2 variant, where the results were analyzed with a 1:1 binding model by BIAevaluation software, as described in Example 4.
The source holds these as a separate data set.

In the next assay the target is T2, IL2-RA (UniProt P01589 22-213, limits assumed).
T2 construct: Bought recombinant protein (Sino); also called CD25; IL-2Rα
T2 sequence (looked up): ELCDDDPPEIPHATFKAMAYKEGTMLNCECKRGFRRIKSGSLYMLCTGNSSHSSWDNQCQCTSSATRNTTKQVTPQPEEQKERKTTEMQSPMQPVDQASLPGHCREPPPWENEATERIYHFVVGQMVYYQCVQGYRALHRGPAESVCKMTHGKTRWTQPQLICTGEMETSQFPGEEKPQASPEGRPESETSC
The protocol: as §1

Like-named read-outs stand apart in the source and are kept apart here.

B1: IL2_V1 Fc fusion protein (Fc fusion)
chain: APTSSSTKKTQLQLEHLLLDLQMILNGINNYKNPKLTAMLTKKFYMPKKATELKHLQCLEEELKPLEEVLNLAQSKNFHLDPRDVVSNINVFVLELKGSETTFMCEYADETATIVEFLNRWITFCQSIISTLTGGGGSSNTKVDKRVEPKSCDKTHTCPPCPAPPVAGPSVFLFPPKPKDTLMISRTPEVTCVVVDVSHEDPEVQFNWYVDGVEVHNAKTKPREEQFNSTFRVVSVLTVVHQDWLNGKEYKCKVSNKGLPAPIEKTISKTKGQPREPQVYTLPPSREEMTKNQVSLTCLVKGFYPSDIAVEWESNGQPENNYKTTPPMLDSDGSFFLYSKLTVDKSRWQQGNVFSCSVMHEALHNHYTQKSLSLSPGK
With B1, in the assay with IL2-RB [1], binding was characterised by a dissociation constant (Kd) of 66.6 nM, the koff turned out to be 0.0116 s⁻¹ and the kon stood at 174000 M⁻¹ s⁻¹.

B2: IL2_V4 Fc fusion protein (Fc fusion)
chain: APTSSSTKKTQLQLEHLLLDLQMILNGINNYKNPKLTAMLTKKFYMPKKATELKHLQCLEEELKPLEEVLNLAQSKNFHFDPRDVISNINVFVLELKGSETTFMCEYADETATIVEFLNRWITFCQSIISTLTGGGGSSNTKVDKRVEPKSCDKTHTCPPCPAPPVAGPSVFLFPPKPKDTLMISRTPEVTCVVVDVSHEDPEVQFNWYVDGVEVHNAKTKPREEQFNSTFRVVSVLTVVHQDWLNGKEYKCKVSNKGLPAPIEKTISKTKGQPREPQVYTLPPSREEMTKNQVSLTCLVKGFYPSDIAVEWESNGQPENNYKTTPPMLDSDGSFFLYSKLTVDKSRWQQGNVFSCSVMHEALHNHYTQKSLSLSPGK
Regarding B2, in the assay with IL2-RB [2], the Kd was found to be 8.99 nM, the koff worked out at 0.00532 s⁻¹ and the kon came to 592000 M⁻¹ s⁻¹. In the assay with IL2-RB [1], this molecule registered a Kd of 29 nM, a dissociation rate constant (koff) of 0.00511 s⁻¹ and a kon of 176000 M⁻¹ s⁻¹.

B3: IL2_V4_R38A_F42A Fc fusion protein (Fc fusion)
chain: APTSSSTKKTQLQLEHLLLDLQMILNGINNYKNPKLTAMLTAKFYMPKKATELKHLQCLEEELKPLEEVLNLAQSKNFHFDPRDVISNINVFVLELKGSETTFMCEYADETATIVEFLNRWITFCQSIISTLTGGGGSSNTKVDKRVEPKSCDKTHTCPPCPAPPVAGPSVFLFPPKPKDTLMISRTPEVTCVVVDVSHEDPEVQFNWYVDGVEVHNAKTKPREEQFNSTFRVVSVLTVVHQDWLNGKEYKCKVSNKGLPAPIEKTISKTKGQPREPQVYTLPPSREEMTKNQVSLTCLVKGFYPSDIAVEWESNGQPENNYKTTPPMLDSDGSFFLYSKLTVDKSRWQQGNVFSCSVMHEALHNHYTQKSLSLSPGK
In the assay with IL2-RA, B3 registered a Kd of 1230 nM, a koff of 0.00562 s⁻¹ and a kon of 4560 M⁻¹ s⁻¹. Besides, in the assay with IL2-RB [2], binding was put at a Kd of 7.5 nM, the koff was 0.00504 s⁻¹ and the kon came to 671000 M⁻¹ s⁻¹.

B4: IL2_V5 Fc fusion protein (Fc fusion)
chain: APTSSSTKKTQLQLEHLLLDLQMILNGINNYKNPKLTAMLTKKFYMPKKATELKHLQCLEEELKPLEEVLNLAQSKNFHFDPRDVVSNINVIVLELKGSETTFMCEYADETATIVEFLNRWITFCQSIISTLTGGGGSSNTKVDKRVEPKSCDKTHTCPPCPAPPVAGPSVFLFPPKPKDTLMISRTPEVTCVVVDVSHEDPEVQFNWYVDGVEVHNAKTKPREEQFNSTFRVVSVLTVVHQDWLNGKEYKCKVSNKGLPAPIEKTISKTKGQPREPQVYTLPPSREEMTKNQVSLTCLVKGFYPSDIAVEWESNGQPENNYKTTPPMLDSDGSFFLYSKLTVDKSRWQQGNVFSCSVMHEALHNHYTQKSLSLSPGK
Consider B4, for which, in the assay with IL2-RB [1], the Kd amounted to 76.7 nM, the koff came out at 0.00936 s⁻¹ and the kon was 122000 M⁻¹ s⁻¹.

B5: supMD IL-2 Fc fusion protein (Fc fusion)
chain: APTSSSTKKTQLQLEHLLLDLQMILNGINNYKNPKLTAMLTKKFYMPKKATELKHLQCLEEELKPLEEVLNLAQSKNFHFDPRDVVSNINVFVLELKGSETTFMCEYADETATIVEFLNRWITFCQSIISTLTGGGGSSNTKVDKRVEPKSCDKTHTCPPCPAPPVAGPSVFLFPPKPKDTLMISRTPEVTCVVVDVSHEDPEVQFNWYVDGVEVHNAKTKPREEQFNSTFRVVSVLTVVHQDWLNGKEYKCKVSNKGLPAPIEKTISKTKGQPREPQVYTLPPSREEMTKNQVSLTCLVKGFYPSDIAVEWESNGQPENNYKTTPPMLDSDGSFFLYSKLTVDKSRWQQGNVFSCSVMHEALHNHYTQKSLSLSPGK
For B5, in the assay with IL2-RB [1], the Kd worked out at 29.5 nM, the koff was 0.004 s⁻¹ and the kon was 136000 M⁻¹ s⁻¹.

B6: IL2_V2 Fc fusion protein (Fc fusion)
chain: APTSSSTKKTQLQLEHLLLDLQMILNGINNYKNPKLTAMLTKKFYMPKKATELKHLQCLEEELKPLEEVLNLAQSKNFHFRPRDVVSNINVFVLELKGSETTFMCEYADETATIVEFLNRWITFCQSIISTLTGGGGSSNTKVDKRVEPKSCDKTHTCPPCPAPPVAGPSVFLFPPKPKDTLMISRTPEVTCVVVDVSHEDPEVQFNWYVDGVEVHNAKTKPREEQFNSTFRVVSVLTVVHQDWLNGKEYKCKVSNKGLPAPIEKTISKTKGQPREPQVYTLPPSREEMTKNQVSLTCLVKGFYPSDIAVEWESNGQPENNYKTTPPMLDSDGSFFLYSKLTVDKSRWQQGNVFSCSVMHEALHNHYTQKSLSLSPGK
In the case of B6, in the assay with IL2-RB [1], the Kd was 124 nM, the koff came out at 0.0158 s⁻¹ and the kon was determined as 128000 M⁻¹ s⁻¹.

B7: IL2_V3 Fc fusion protein (Fc fusion)
chain: APTSSSTKKTQLQLEHLLLDLQMILNGINNYKNPKLTAMLTKKFYMPKKATELKHLQCLEEELKPLEEVLNLAQSKNFHFDPRDLVSNINVFVLELKGSETTFMCEYADETATIVEFLNRWITFCQSIISTLTGGGGSSNTKVDKRVEPKSCDKTHTCPPCPAPPVAGPSVFLFPPKPKDTLMISRTPEVTCVVVDVSHEDPEVQFNWYVDGVEVHNAKTKPREEQFNSTFRVVSVLTVVHQDWLNGKEYKCKVSNKGLPAPIEKTISKTKGQPREPQVYTLPPSREEMTKNQVSLTCLVKGFYPSDIAVEWESNGQPENNYKTTPPMLDSDGSFFLYSKLTVDKSRWQQGNVFSCSVMHEALHNHYTQKSLSLSPGK
In the case of B7, in the assay with IL2-RB [1], binding was put at a Kd of 218 nM, the koff was found to be 0.0179 s⁻¹ and the kon came out at 82400 M⁻¹ s⁻¹.

B8: IL2_V4_F42A Fc fusion protein (Fc fusion)
chain: APTSSSTKKTQLQLEHLLLDLQMILNGINNYKNPKLTRMLTAKFYMPKKATELKHLQCLEEELKPLEEVLNLAQSKNFHFDPRDVISNINVFVLELKGSETTFMCEYADETATIVEFLNRWITFCQSIISTLTGGGGSSNTKVDKRVEPKSCDKTHTCPPCPAPPVAGPSVFLFPPKPKDTLMISRTPEVTCVVVDVSHEDPEVQFNWYVDGVEVHNAKTKPREEQFNSTFRVVSVLTVVHQDWLNGKEYKCKVSNKGLPAPIEKTISKTKGQPREPQVYTLPPSREEMTKNQVSLTCLVKGFYPSDIAVEWESNGQPENNYKTTPPMLDSDGSFFLYSKLTVDKSRWQQGNVFSCSVMHEALHNHYTQKSLSLSPGK
In the assay with IL2-RA, B8 displayed a Kd of 6.75 nM, a koff of 0.000789 s⁻¹ and a kon of 117000 M⁻¹ s⁻¹. In the assay with IL2-RB [2], this molecule gave a Kd of 9.43 nM, a koff of 0.00492 s⁻¹ and a kon of 522000 M⁻¹ s⁻¹.

B9: IL2_V4_R38A Fc fusion protein (Fc fusion)
chain: APTSSSTKKTQLQLEHLLLDLQMILNGINNYKNPKLTAMLTFKFYMPKKATELKHLQCLEEELKPLEEVLNLAQSKNFHFDPRDVISNINVFVLELKGSETTFMCEYADETATIVEFLNRWITFCQSIISTLTGGGGSSNTKVDKRVEPKSCDKTHTCPPCPAPPVAGPSVFLFPPKPKDTLMISRTPEVTCVVVDVSHEDPEVQFNWYVDGVEVHNAKTKPREEQFNSTFRVVSVLTVVHQDWLNGKEYKCKVSNKGLPAPIEKTISKTKGQPREPQVYTLPPSREEMTKNQVSLTCLVKGFYPSDIAVEWESNGQPENNYKTTPPMLDSDGSFFLYSKLTVDKSRWQQGNVFSCSVMHEALHNHYTQKSLSLSPGK
Turning to B9, in the assay with IL2-RA, the Kd was 3.31 nM, the koff turned out to be 0.00227 s⁻¹ and the kon is 685000 M⁻¹ s⁻¹. In the assay with IL2-RB [2], the Kd is 7.33 nM, the koff is 0.00556 s⁻¹ and the kon is 759000 M⁻¹ s⁻¹.

By Kd is commonly meant the free concentration of one partner at which half of the binding sites on the other are occupied at equilibrium, for simple one-to-one binding. Read a high Kd as lower affinity. The term koff denotes the first-order rate constant of dissociation. Read a low koff as a long-lived complex. Broadly, the kon is the rate constant with which the complex forms. A high value points to faster complex formation.
